Here are results for one protein from publication PMC8289115, “Liquid–liquid phase separation of full-length prion protein initiates conformational conversion in vitro” (The Journal of Biological Chemistry, 2021).

The data set concerns the molecule itself. Nature of the data set: SDS-PAGE and Western blotting of aged gels collected by centrifugation. (In western blotting, separated proteins are transferred to a membrane and probed.)

B1: full-length human recombinant prion protein (residues 23-231) (natural protein)
chain: not shown
notes: also called rPrP; hu-PrP; source: E. coli DH5α, purified
For B1, the binding result is “binds”.
